The target in assay [1] is CAP1 of the surface plasmon resonance assay and of the binding-affinity measurement (UniProt Q01518).
Assay [2] addresses PCSK9 WT of the binding-affinity measurement (Figure S2) (human, UniProt Q8NBP7 31-692).
The target in assay [3] is PCSK9 A514T of the binding-affinity measurement (Figure S2) (human, UniProt Q8NBP7 31-692, A514T).
The target in assay [4] is PCSK9 S668RG670E of the binding-affinity measurement (Figure S2) (human, UniProt Q8NBP7 31-692, S668R | G670E).

Drawing on publication PMC6945527 (European Heart Journal, 2019), this text covers Kd for two molecules.

Sequence of PCSK9 A514T of the binding-affinity measurement (Figure S2) (Q8NBP7 31-692 A514T): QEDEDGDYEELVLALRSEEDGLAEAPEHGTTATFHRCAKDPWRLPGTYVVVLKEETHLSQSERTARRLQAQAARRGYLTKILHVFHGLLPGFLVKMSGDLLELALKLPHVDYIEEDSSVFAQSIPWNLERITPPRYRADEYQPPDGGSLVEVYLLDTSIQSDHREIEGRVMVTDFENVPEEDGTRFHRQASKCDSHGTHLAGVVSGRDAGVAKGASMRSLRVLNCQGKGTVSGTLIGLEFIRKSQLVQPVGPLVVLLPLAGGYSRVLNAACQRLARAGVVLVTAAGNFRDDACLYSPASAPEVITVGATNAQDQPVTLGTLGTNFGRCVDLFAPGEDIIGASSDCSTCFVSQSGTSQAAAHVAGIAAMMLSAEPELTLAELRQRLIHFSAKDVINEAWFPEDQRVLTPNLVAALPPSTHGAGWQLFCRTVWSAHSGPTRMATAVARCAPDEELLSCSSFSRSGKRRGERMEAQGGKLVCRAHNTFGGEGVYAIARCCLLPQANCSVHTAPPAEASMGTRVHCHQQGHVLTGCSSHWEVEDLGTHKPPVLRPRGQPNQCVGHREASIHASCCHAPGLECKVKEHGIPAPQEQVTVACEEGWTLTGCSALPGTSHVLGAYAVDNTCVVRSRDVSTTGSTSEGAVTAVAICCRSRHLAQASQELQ
Sequence of PCSK9 S668RG670E of the binding-affinity measurement (Figure S2) (Q8NBP7 31-692 S668R/G670E): as the sequence (Q8NBP7 31-692 A514T) above, with T484A, S638R, G640E counted along it
Sequence of PCSK9 WT of the binding-affinity measurement (Figure S2) (Q8NBP7 31-692): as the sequence (Q8NBP7 31-692 A514T) above, with T484A counted along it

“PCSK9 G670E of the binding-affinity measurement (Figure S2) (from UniProt Q8NBP7 31-692) (natural protein)” registered a Kd in assay [1] of 960 nM.

B1: CAP1 of the surface plasmon resonance assay and of the binding-affinity measurement (natural protein)
chain: MADMQNLVERLERAVGRLEAVSHTSDMHRGYADSPSKAGAAPYVQAFDSLLAGPVAEYLKISKEIGGDVQKHAEMVHTGLKLERALLVTASQCQQPAENKLSDLLAPISEQIKEVITFREKNRGSKLFNHLSAVSESIQALGWVAMAPKPGPYVKEMNDAAMFYTNRVLKEYKDVDKKHVDWVKAYLSIWTELQAYIKEFHTTGLAWSKTGPVAKELSGLPSGPSAGSCPPPPPPCPPPPPVSTISCSYESASRSSLFAQINQGESITHALKHVSDDMKTHKNPALKAQSGPVRSGPKPFSAPKPQTSPSPKRATKKEPAVLELEGKKWRVENQENVSNLVIEDTELKQVAYIYKCVNTTLQIKGKINSITVDNCKKLGLVFDDVVGIVEIINSKDVKVQVMGKVPTISINKTDGCHAYLSKNSLDCEIVSAKSSEMNVLIPTEGGDFNEFPVPEQFKTLWNGQKLVTTVTEIAG
Turning to B1, the figures for the Kd in assay [2], in assay [3] and in assay [4] were 450 nM, 110 nM and 2320 nM, respectively.
